Laboratory results published in article PMC9471973 (Computational and Structural Biotechnology Journal, 2022).
No end group written: not given here.

Tests used:
cross-linking [1] = molecular target: the molecule itself; assay: cross-linking
cross-linking [2] = molecular target: the molecule itself; assay: cross-linking; remark: listed apart in the source
crystal structure = molecular target: the molecule itself; assay: crystal structure

Row | Protein | stoichiometry N (cross-linking [1]) | further results
1 | truncated mouse TRIM75 protein (136-467) containing the coiled coil and C-terminal domains, N-terminal FLAG tag (domain or fragment, UniProt Q3UWZ0 136-467, looked up) SLHRKHLQDYSKLLKWEVKEIQGLMSALNKRTVTLREQAEAQRSQLTSECEKLMRFLDQEERAAFSRLEDEEMRLEKRLLDNIAALEHHGSSLRDLLRHLMLTGELSEAKMLSTVKDFYLNCRRQLISPSIFPVQLRRVEYSFPLQYSALQKVIQHFTDNVTLDLKTAHPNLLISKDRTCVTFTKKRQRIPGSSSFTKSPVVLGIPHFNSGRHFWEVQVGKKPKWAIGICKADSSIGERQSPNPWGYWRIVWQGDSFNVSGADPDSRLKAARATSIGVFLDYELGEVSFYGMPEKCHLYTFRDTFSGPVCPYFYIGPQSEPLRLCSATDSEC | 4 | –
2 | mouse TRIM75 coiled-coil domain with the CCm9A mutation (domain or fragment, UniProt Q3UWZ0 168-222, looked up) VTLREQAEAAASQATSEAEKAMRAADQEARAAFSRAEDEEMRLEKRLLDNIAALE | – | stoichiometry N (cross-linking [2]): 2
3 | full-length mouse TRIM75 with N-terminal FLAG tag (natural protein, UniProt Q3UWZ0 1-467, looked up) MAHVEVLARLQKETKCPICLDDLTDPVTVECGHNFCRSCIKDFWAGQQATSSCPVCRHQCQHRNLRSNAQLGNMIETAQLLQGMENKRHESSTSCERHNQALTLFCEDDLQLLCDQCVEPESHGRHQVLSITEAASLHRKHLQDYSKLLKWEVKEIQGLMSALNKRTVTLREQAEAQRSQLTSECEKLMRFLDQEERAAFSRLEDEEMRLEKRLLDNIAALEHHGSSLRDLLRHLMLTGELSEAKMLSTVKDFYLNCRRQLISPSIFPVQLRRVEYSFPLQYSALQKVIQHFTDNVTLDLKTAHPNLLISKDRTCVTFTKKRQRIPGSSSFTKSPVVLGIPHFNSGRHFWEVQVGKKPKWAIGICKADSSIGERQSPNPWGYWRIVWQGDSFNVSGADPDSRLKAARATSIGVFLDYELGEVSFYGMPEKCHLYTFRDTFSGPVCPYFYIGPQSEPLRLCSATDSEC | 4 | –
4 | mouse TRIM75 coiled-coil domain (residues 168-222) (domain or fragment, UniProt Q3UWZ0 168-222, looked up, also: homodimer: interchain disulfide between C185 of two chains) VTLREQAEAQRSQLTSECEKLMRFLDQEERAAFSRLEDEEMRLEKRLLDNIAALE | – | stoichiometry N (crystal structure): 4
